Reference: patent publication EP0866131A2

Target: human Fas antigen on HPB-ALL cells (human) (UniProt P25445)
Test: cell-based or functional assay

Sequence of UniProt P25445 (P25445 26-335): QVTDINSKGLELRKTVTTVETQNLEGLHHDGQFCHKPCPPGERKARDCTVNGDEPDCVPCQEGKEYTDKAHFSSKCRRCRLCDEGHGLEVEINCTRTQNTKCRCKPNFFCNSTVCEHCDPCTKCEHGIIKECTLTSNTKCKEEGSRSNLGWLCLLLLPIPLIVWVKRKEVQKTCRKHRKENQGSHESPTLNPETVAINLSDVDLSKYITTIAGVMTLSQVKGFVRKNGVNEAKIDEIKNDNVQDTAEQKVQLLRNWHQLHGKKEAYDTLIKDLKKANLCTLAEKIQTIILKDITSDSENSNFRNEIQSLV

## mouse anti-human Fas monoclonal antibody CH11
  ED50 (ng/ml), cytotoxic activity on HPB-ALL cells: 10.7 ng/mL
